Data taken from patent US12691168B2, “Vaccine for preventing and treating Merkel cell carcinoma” (priority 2020, dated 2026).

B1: rVP1: recombinant VP1 from inclusion bodies, disassembled with DTT/EGTA and reassembled under GSSG-GSH condition (protein)
chain: MAPKRKASSTCKTPKRQCIPKPGCCPNVASVPKLLVKGGVEVLSVVTGEDSITQIELYLNPRMGVNSPDLPTTSNWYTYTYDLQPKGSSPDQPIKENLPAYSVARVSLPMLNEDITCDTLQMWEAISVKTEVVGISSLINVHYWDMKRVHDYGAGIPVSGVNYHMFAIGGEPLDLQGLVLDYQTEYPKTTNGGPITIETVLGRKMTPKNQGLDPQAKAKLDKDGNYPIEVWCPDPSKNENSRYYGSIQTGSQTPTVLQFSNTLTTVLLDENGVGPLCKGDGLFISCADIVGFLFKTSGKMALHGLPRYFNVTLRKRWVKNPYPVVNLINSLFSNLMPKVSGQPMEGKDNQVEEVRIYEGSEQLPGDPDIVRFLDKFGQEKTVYPKPSVAPAAVTFQSNQQDKGKAPLKGPQKASQKESQTQELHHHHHH
B2: sVP1: soluble VP1 expressed under low-temperature induction (protein)
chain: B1 chain

Tests used:
CMS5 cells = assay: Killing effect of puromycin on CMS5 cells (trypan blue staining, microscope); type: cell-based; settings: puromycin 5 μg/mL, 24 h of culture
Procedure: In order to determine the killing dose of puromycin to CMS5, CMS5 cells were cultured in RPMI1640 (10% FBS, 1% […]) complete media with different concentrations of puromycin. 24 h later, cells were stained with trypan blue and observed under a microscope for mortality to determine the drug concentration for 100% lethality of CMS5 cells as the drug pressure for CMS5-VP1 cell line screening. […] After 24 h of culture, the CMS5 cells digested with trypsin were stained with trypan blue and the lethality of the cells was calculated microscopically to determine the final puromycin drug concentration. […]

[1] = Particle size by nano particle sizer; type: physicochemical
Procedure: 5) The VP1 was detected for pentamer formation by Nu-PAGE. The MCV-VP1 particle size was measured using a nano particle sizer.
3) Reassembled (also known as self-assembled) recombinant VP1 was named (rVP1), and rVP1 was filtered through a […] needle filter for sterilization, detected for the pentamer structure by Nu-PAGE, and measured for the particle size by a nano particle sizer.

[2] = tested on: anti-VP1 antibody in serum; assay: VP1-specific antibody titer in serum of immunized mice by ELISA; type: in vivo, BALB/c mice; settings: Example 14; antigen adsorbed to Al(OH)3, i.m. days 0 and 14, blood day 28; plate coated with sVP1
Procedure: Enzyme-linked immunosorbent assay: on day 21, blood samples were collected from the mice, and the serum was determined for specific antibody titer by ELISA. When the antibody concentration in the mouse serum needs to be semi-quantitatively determined, a standard curve is added on the basis of the conventional ELISA, and the concentration of the antibody in the mouse serum is determined according to the concentration of the standard curve.
Blood was taken from the fundus of BALB/c mice who have completed the immunization program on day 28 after the initial immunization and left to stand at 4° C. overnight. The blood was centrifuged at 6000 rpm for 10 min to obtain serum. The level of anti-VP1 antibody in serum was determined by ELISA. The specific procedures were as follows: […]
The optical absorbance values were read at OD450/OD620 nm, and a value of 2.1 times the OD value of the negative control group was taken as a cutoff value. […]
In order to obtain a large amount of VP1, VP1 expressed under high-temperature induction in a fermentation tank mainly formed inclusion bodies. […] The antigen-specific antibody titer was determined by enzyme-linked immunosorbent assay (ELISA), and the specific procedures were as follows: […]
Reading: optical absorbance values were read at OD450/OD620. […]

[3] = tested on: DTH (delayed type hypersensitivity); assay: Delayed type hypersensitivity (DTH), foot pad / paw swelling after antigen injection; type: in vivo, mice; settings: Example 13; two immunizations; 24 h after injection of rVP1; therapeutic vaccine groups compared with Vac group
Procedure: Delayed Type Hypersensitivity (DTH): the mice were immunized with the vaccine, and 7 days after the final immunization, 10 μL of antigen protein (10 μg) was injected into the hindfoot pad on the immunized side (right side) of the mice, and 10 μL of phosphate buffer was injected into the hindfoot pad on the side opposite to the immunized side (left side). The thickness of both hindfoot pads of the mice was measured 24 h and 48 h after DTH with a vernier caliper, and the measurement was performed three times at the same site to take the average. DTH value (mm)=right foot pad thickness−left foot pad thickness.
On day 7 after the immunization program, mice were injected with 10 μL of PBS or 10 μg of rVP1 (10 μL) at the left and right hind limb paws.
The paw swelling thickness was calculated for each experimental group according to the formula, and the differences between all vaccine groups were analyzed with GraphPad Prism statistical software.

Molecule | dead CMS5 cells, trypan blue staining (CMS5 cells) | state of the cells observed under a microscope (CMS5 cells) | particle size [1] | antigen-specific antibody titer relative to sVP1 [2] | DTH reaction (paw swelling thickness) [3]
COc1ccc(C[C@H](N)C(=O)N[C@H]2[C@@H](O)[C@H](n3cnc4c(N(C)C)ncnc43)O[C@@H]2CO)cc1 [puromycin] | 100% | died in large numbers | – | – | –
B1 | – | – | 115.3 nm | twice those of sVP1 | not significant
B2 | – | – | much higher than that of rVP1 | – | –
